Results from patent US20120207788A1 (BIOMAY, published 2012).

B1: hybrid molecule Q (other)
chain: MFRFLTEKGMKNVFDDVVPEKYTIGATYAPEEDEWVAMTKGEGGVWTFDSEEPLQGPFNADKYKTFEAAFTVSSKRNLADAVSKAPQLVPKLDEVYNAAYNAADHAAPEDKYEAFVLHFSEALRIIAGTPEVHAVKPGAVPKVTFTVEKGSNEKHLAVLVKYEGDTMAEVELREHGSHHHHHH
B2: hybrid molecule P (other)
chain: MGAASNKAFAEGLSGEPKGAAESSSKAALTSKLDAAYKLAYKTAEGATPEAKYDAYVATLSEALRIIAGTLEVHAVKPAADLGYGPATPAAPAAGYTPATPAAPAEAAPAGKATTEEQKLIEKINAGFKAALAAAAGVQPADKYRTFVATFSGRGCGSCFEIKCTKPEACSGEPVVVHITDDNEEPIAPYHFDLSGHAFGAMAKKGDEQKLRTGPFTVRYTTEGGTKTEAEDVIPEGWKADTSYESKAEEVKVIPAGELQVIEKVDAAFKVAATAANAAPAAVKQAYAATVATAPEVKYTVFETALKKAITAMSEAQKAAKPAAAATATATAAVGAATGAATAATGGYKVNDKFTVFEAAFNDAIKASTGGAYESYKFIPALEAIPKVPPGPNITATYGDKWLDAKSTWYGKPTGASAGELELQFRRVKCKYPEGTKVTFHVEKGSNPNYLALLVKYVNGDGDVVAVDIKEKGKDKWIELKESWGAIWRIDTPDKLGPKDNGGACGYKDVDKPPFSGMTGCGNTPIFKHHHHHH
B3: hybrid molecule C (other)
chain: MGAASNKAFAEGLSGEPKGAAESSSKAALTSKLDAAYKLAYKTAEGATPEAKYDAYVATLSEALRIIAGTLEVHAVKPAADLGYGPATPAAPAAGYTPATPAAPAEAAPAGKATTEEQKLIEKINAGFKAALAAAAGVQPADKYRTFVATFSGRGCGSCFEIKCTKPEACSGEPVVVHITDDNEEPIAPYHFDLSGHAFGAMAKKGDEQKLRTGPFTVRYTTEGGTKTEAEDVIPEGWKADTSYESKHHHHHH
B4: hybrid molecule B (other)
chain: MAVKQAYAATVATAPEVKYTVFETALKKAITAMSEAQKAAKPAAAATATATAAVGAATGAATAATGGYKVAEEVKVIPAGELQVIEKVDAAFKVAATAANAAPANDKFTVFEAAFNDAIKASTGGAYESYKFIPALEAIPKVPPGPNITATYGDKWLDAKSTWYGKPTGAGPKDNGGACGYKDVDKPPFSGMTGCGNTPIFKSAGELELQFRRVKCKYPEGTKVTFHVEKGSNPNYLALLVKYVNGDGDVVAVDIKEKGKDKWIELKESWGAIWRIDTPDKLHHHHHH

The binders below were run against serum IgE from grass pollen allergic patients (assay: cell-based or functional assay).

CD203c expression on human basophils isolated from grass pollen allergic patients, 10 fold:
B1
B2
B3
B4
